Molecular target: CMG2-Fc fusion protein (capillary morphogenesis protein 2 amino acids 1-225 fused to the Fc fragment of human IgG1) (human) (UniProt P58335)
Assay: BLI

UniProt P58335, sequence (P58335 34-225): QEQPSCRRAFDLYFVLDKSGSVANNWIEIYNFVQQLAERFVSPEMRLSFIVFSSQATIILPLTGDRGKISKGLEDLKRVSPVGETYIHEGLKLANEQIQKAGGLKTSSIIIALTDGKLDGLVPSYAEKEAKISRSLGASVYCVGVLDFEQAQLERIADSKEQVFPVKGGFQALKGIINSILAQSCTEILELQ

“protective antigen (PA) of anthrax toxin (natural protein)” was tested, and the Kd was 840 pM, the koff was 9.7e-06 s⁻¹ and the kon was 11500 M⁻¹ s⁻¹.
